From the supplement of paper PMC9112550, “Optimization of the antimicrobial peptide Bac7 by deep mutational scanning” (BMC Biology, 2022)

Tested on: Escherichia coli TOP10
Experiment: shrunken log2 fold change of peptide-encoding DNA abundance (4.5 h post-induction vs induction); higher = less antimicrobial activity (less host growth inhibition)
Details: time post-induction: 4.5 h; library: site-saturation at positions 5, 18, 19, 20
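Further: peptides expressed intracellularly from a pBAD plasmid library in pooled LB shake-flask culture, induced with 0.3% L-arabinose, DNA abundance read by NGS, three biological replicates, DESeq2 with apeglm shrinkage.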

Row | Sequence | shrunken log2 fold change
1 | RRIRMRPPRLPRPRPRPCRSPRP | 0.0369
2 | RRIRQRPPRLPRPRPRPLSSPRP | -0.055
3 | RRIRTRPPRLPRPRPRPMSPPRP | -0.152
4 | RRIRLRPPRLPRPRPRPVGIPRP | 0.102
5 | RRIRPRPPRLPRPRPRPYCPPRP | -0.365
6 | RRIRMRPPRLPRPRPRPQCFPRP | 0.275
7 | RRIRPRPPRLPRPRPRPKEIPRP | -0.0621
8 | RRIRERPPRLPRPRPRPNCPPRP | -0.409
9 | RRIRTRPPRLPRPRPRPIHSPRP | -0.191
10 | RRIRKRPPRLPRPRPRPCCGPRP | 0.281
11 | RRIRSRPPRLPRPRPRPPRPPRP | 0.684
12 | RRIRLRPPRLPRPRPRPGWNPRP | 0.000784
13 | RRIRFRPPRLPRPRPRPNTCPRP | -0.483
14 | RRIRERPPRLPRPRPRPLVWPRP | 0.339
15 | RRIRYRPPRLPRPRPRPVFIPRP | -0.929
16 | RRIRVRPPRLPRPRPRPINVPRP | -0.342
17 | RRIRHRPPRLPRPRPRPSGYPRP | -0.0698
18 | RRIRVRPPRLPRPRPRPKFNPRP | -0.42
19 | RRIRDRPPRLPRPRPRPFKVPRP | -0.0463
20 | RRIRDRPPRLPRPRPRPFWWPRP | 0.641
21 | RRIRSRPPRLPRPRPRPAGMPRP | 0.223
22 | RRIRIRPPRLPRPRPRPDSMPRP | -0.00884
23 | RRIRRRPPRLPRPRPRPHQGPRP | 0.0901
24 | RRIRQRPPRLPRPRPRPKPPPRP | 0.27
25 | RRIRKRPPRLPRPRPRPLRFPRP | 0.896

Row | Sequence | shrunken log2 fold change
26 | RRIRPRPPRLPRPRPRPPPDPRP | 0.622
27 | RRIRMRPPRLPRPRPRPGIFPRP | 0.00597
28 | RRIRQRPPRLPRPRPRPEKIPRP | 2.55
29 | RRIRRRPPRLPRPRPRPCEIPRP | 0.0684
30 | RRIRLRPPRLPRPRPRPMDTPRP | -0.323
31 | RRIRPRPPRLPRPRPRPFYGPRP | -0.142
32 | RRIRVRPPRLPRPRPRPCHAPRP | -0.311
33 | RRIRWRPPRLPRPRPRPGTTPRP | 0.0295
34 | RRIRPRPPRLPRPRPRPCHPPRP | -0.154
35 | RRIRSRPPRLPRPRPRPRFMPRP | -0.211
36 | RRIRDRPPRLPRPRPRPSPKPRP | -0.00809
37 | RRIRVRPPRLPRPRPRPHHWPRP | -0.157
38 | RRIRWRPPRLPRPRPRPTVHPRP | -0.189
39 | RRIRCRPPRLPRPRPRPETTPRP | 0.394
40 | RRIRGRPPRLPRPRPRPRDEPRP | 0.293
41 | RRIRRRPPRLPRPRPRPSICPRP | 0.00217
42 | RRIRIRPPRLPRPRPRPSQFPRP | -0.604
43 | RRIRERPPRLPRPRPRPCFHPRP | -0.327
44 | RRIRLRPPRLPRPRPRPVTEPRP | 0.0237
45 | RRIRQRPPRLPRPRPRPSSGPRP | -0.0384
46 | RRIRERPPRLPRPRPRPRLFPRP | 0.00738
47 | RRIRMRPPRLPRPRPRPMVGPRP | -0.06
48 | RRIRWRPPRLPRPRPRPNACPRP | 0.478
49 | RRIRPRPPRLPRPRPRPCQWPRP | 0.205
50 | RRIRLRPPRLPRPRPRPQLYPRP | -0.12

Row | Sequence | shrunken log2 fold change
51 | RRIRFRPPRLPRPRPRPMEGPRP | -0.0345
52 | RRIRCRPPRLPRPRPRPSMLPRP | -0.727
53 | RRIRARPPRLPRPRPRPDWQPRP | 0.281
54 | RRIRDRPPRLPRPRPRPLFWPRP | 0.516
55 | RRIRCRPPRLPRPRPRPDRTPRP | 0.0438
56 | RRIRMRPPRLPRPRPRPRREPRP | 1.27
57 | RRIRMRPPRLPRPRPRPTFVPRP | 0.134
58 | RRIRRRPPRLPRPRPRPFGDPRP | -0.0397
59 | RRIRYRPPRLPRPRPRPVFPPRP | -0.0627
60 | RRIRHRPPRLPRPRPRPHDWPRP | 0.0241
61 | RRIRGRPPRLPRPRPRPKRPPRP | 0.969
62 | RRIRPRPPRLPRPRPRPMVCPRP | -0.0948
63 | RRIRCRPPRLPRPRPRPRYYPRP | -0.612
64 | RRIRQRPPRLPRPRPRPIWFPRP | -0.000433
65 | RRIRPRPPRLPRPRPRPIYHPRP | -0.466
66 | RRIRPRPPRLPRPRPRPCIWPRP | -0.109
67 | RRIRCRPPRLPRPRPRPLKHPRP | -0.584
68 | RRIRHRPPRLPRPRPRPMRMPRP | -0.00476
69 | RRIRRRPPRLPRPRPRPDKTPRP | 0.119
70 | RRIRNRPPRLPRPRPRPISDPRP | -0.0335
71 | RRIRWRPPRLPRPRPRPPWAPRP | 0.452
72 | RRIRDRPPRLPRPRPRPRRSPRP | 0.174
73 | RRIRTRPPRLPRPRPRPRWTPRP | -0.0339
74 | RRIRIRPPRLPRPRPRPDSVPRP | 0.0234
75 | RRIRWRPPRLPRPRPRPKIQPRP | 0.21

Row | Sequence | shrunken log2 fold change
76 | RRIRERPPRLPRPRPRPANWPRP | 0.173
77 | RRIRGRPPRLPRPRPRPRRTPRP | 0.67
78 | RRIRSRPPRLPRPRPRPCDAPRP | -0.122
79 | RRIRRRPPRLPRPRPRPLCCPRP | 0.293
80 | RRIRSRPPRLPRPRPRPMNKPRP | -0.6
81 | RRIRYRPPRLPRPRPRPICLPRP | -0.219
82 | RRIRIRPPRLPRPRPRPCSNPRP | -0.11
83 | RRIRRRPPRLPRPRPRPCFGPRP | 0.0921
84 | RRIRPRPPRLPRPRPRPCNFPRP | -0.129
85 | RRIRKRPPRLPRPRPRPGWQPRP | 0.347
86 | RRIRCRPPRLPRPRPRPLCSPRP | -0.399
87 | RRIRHRPPRLPRPRPRPTGNPRP | -0.215
88 | RRIRGRPPRLPRPRPRPRMNPRP | 0.572
89 | RRIRTRPPRLPRPRPRPFSTPRP | -0.0812
90 | RRIRRRPPRLPRPRPRPGEMPRP | 0.122
91 | RRIRNRPPRLPRPRPRPCDCPRP | 0.0143
92 | RRIRRRPPRLPRPRPRPHHFPRP | -0.196
93 | RRIRRRPPRLPRPRPRPYIPPRP | -0.468
94 | RRIRPRPPRLPRPRPRPTNGPRP | 0.191
95 | RRIRRRPPRLPRPRPRPVDKPRP | 0.0213
96 | RRIRYRPPRLPRPRPRPLVPPRP | -0.539
97 | RRIRMRPPRLPRPRPRPGPDPRP | 0.768
98 | RRIRFRPPRLPRPRPRPAHKPRP | 0.225
99 | RRIRKRPPRLPRPRPRPSCCPRP | 0.269
100 | RRIRPRPPRLPRPRPRPKEAPRP | -0.0122

Row | Sequence | shrunken log2 fold change
101 | RRIRPRPPRLPRPRPRPIQDPRP | -0.239
102 | RRIRARPPRLPRPRPRPMETPRP | -0.0508
103 | RRIRDRPPRLPRPRPRPWHQPRP | -0.0511
104 | RRIRKRPPRLPRPRPRPNNWPRP | 0.42
105 | RRIRSRPPRLPRPRPRPHAGPRP | 0.428
106 | RRIRTRPPRLPRPRPRPTETPRP | 0.171
107 | RRIRLRPPRLPRPRPRPCTFPRP | -0.0569
108 | RRIRARPPRLPRPRPRPVGAPRP | 0.731
109 | RRIRHRPPRLPRPRPRPWFKPRP | 0.0141
110 | RRIRVRPPRLPRPRPRPTRWPRP | 0.173
111 | RRIRERPPRLPRPRPRPFNMPRP | -0.236
112 | RRIRHRPPRLPRPRPRPFREPRP | -0.0591
113 | RRIRFRPPRLPRPRPRPPYWPRP | 0.191
114 | RRIRKRPPRLPRPRPRPAQYPRP | -0.141
115 | RRIRMRPPRLPRPRPRPLQWPRP | 0.104
116 | RRIRWRPPRLPRPRPRPEAYPRP | 0.212
117 | RRIRWRPPRLPRPRPRPHQIPRP | -0.154
118 | RRIRNRPPRLPRPRPRPPMLPRP | -0.0624
119 | RRIRGRPPRLPRPRPRPKMQPRP | 0.292
120 | RRIRHRPPRLPRPRPRPWWIPRP | -0.177
121 | RRIRYRPPRLPRPRPRPCSEPRP | -0.067
122 | RRIRKRPPRLPRPRPRPRIEPRP | 0.112
123 | RRIRLRPPRLPRPRPRPGSLPRP | -0.0743
124 | RRIRRRPPRLPRPRPRPATTPRP | 0.092
125 | RRIRHRPPRLPRPRPRPWKHPRP | -0.0222
